Test results as given in the Human Domainome abundance scans (Beltran et al. 2025).
± gives the uncertainty stated by the source.

B1: Intersectin-1, residues 1156 to 1213; numbered along this chain, Q15811 (parent)
chain: AVCQVIGMYDYTAQNDDELAFNKGQIINVLNKEDPDWWKGEVNGQVGLFPSNYVKLTT
B2: SH3 and PX domain-containing protein 2B, residues 155 to 209; numbered along this chain, A1X283 (parent)
chain: EQYVVVANYQKQESSEISLSVGQVVDIIEKNESGWWFVSTAEEQGWVPATCLEGQ

Variants of: B1
Experiment: abundance fitness (aPCA) (normalised: wild type 0, dead -1); higher = more abundant; growth selection in yeast, the domain comes from the species named
Details: Homo sapiens

Abundance fitness of substitutions, site by site:
M8: F -0.286 ± 0.17; D -0.67 ± 0.18; N -0.576 ± 0.21; E 0.541 ± 0.12; Q 0.31 ± 0.14; C -0.02 ± 0.14; H -0.167 ± 0.2; S -0.233 ± 0.11; P -0.914 ± 0.19; G -0.51 ± 0.087; Y -0.472 ± 0.21; W -0.3 ± 0.13; R 0.145 ± 0.08; A 0.209 ± 0.091; L 0.333 ± 0.09; I 0.542 ± 0.16; T -0.002 ± 0.14
Q14: V -0.263 ± 0.12; D -0.285 ± 0.2; Y -0.922 ± 0.26; A -0.267 ± 0.15; G -0.186 ± 0.099; W -0.723 ± 0.12; T -0.255 ± 0.11; K 0.161 ± 0.14; P -0.844 ± 0.14; C -0.582 ± 0.16; L -0.441 ± 0.087; E -0.122 ± 0.18; M -0.284 ± 0.13; H -0.505 ± 0.22; R 0.038 ± 0.073; I -0.58 ± 0.19
N15: S 0.085 ± 0.096; E -0.17 ± 0.11; T 0.024 ± 0.12; F -0.539 ± 0.21; Q -0.185 ± 0.1; K 0.047 ± 0.11; R 0.038 ± 0.075; A -0.131 ± 0.095; P -0.964 ± 0.17; L -0.612 ± 0.087; W -0.635 ± 0.12; I -0.664 ± 0.25; D -0.185 ± 0.14; H -0.433 ± 0.16; V -0.639 ± 0.1; G 0.047 ± 0.085
Y11: H 0.077 ± 0.16; W -0.932 ± 0.17; R -0.374 ± 0.084; F -0.271 ± 0.2; L -0.851 ± 0.13; P -0.759 ± 0.16; E -0.809 ± 0.21; I -0.563 ± 0.2; S -0.769 ± 0.13; C -0.509 ± 0.17; Q -0.692 ± 0.22; D -0.928 ± 0.23; N -0.937 ± 0.29; T -0.555 ± 0.19; V -0.765 ± 0.12; K -0.879 ± 0.23; G -0.655 ± 0.097; M -0.698 ± 0.18
V2: G -0.115 ± 0.089; D -0.142 ± 0.21; H -0.105 ± 0.21; Q -0.466 ± 0.23; L -0.375 ± 0.11; A -0.492 ± 0.15; C -0.357 ± 0.18; T -0.187 ± 0.16; R -0.003 ± 0.095; E -0.074 ± 0.17; M -0.205 ± 0.17; P -0.222 ± 0.15; N -0.223 ± 0.29; F -0.268 ± 0.18; K -0.06 ± 0.25; S -0.233 ± 0.14; Y -0.264 ± 0.27; W -0.384 ± 0.19
V5: P -0.94 ± 0.18; K -0.708 ± 0.18; D -0.711 ± 0.17; N -0.902 ± 0.19; T -0.526 ± 0.15; L -0.891 ± 0.15; E -0.843 ± 0.28; W -0.574 ± 0.15; M -0.737 ± 0.17; F -0.772 ± 0.19; G -0.309 ± 0.096; H -0.644 ± 0.32; S -0.813 ± 0.12; Q -0.673 ± 0.29; A -0.045 ± 0.1; R -0.831 ± 0.12; I -0.823 ± 0.16; Y -0.309 ± 0.14; C 0.005 ± 0.12
Y9: A 0.362 ± 0.1; F 0.259 ± 0.13; R 0.538 ± 0.074; K 0.474 ± 0.15; T 0.257 ± 0.11; Q 0.535 ± 0.14; G -0.164 ± 0.088; I 0.431 ± 0.13; H 0.278 ± 0.18; C 0.387 ± 0.12; V 0.336 ± 0.086; N 0.418 ± 0.15; E 0.338 ± 0.12; P -0.835 ± 0.2; L 0.263 ± 0.092; D 0.196 ± 0.15
I6: D -0.922 ± 0.25; L -0.47 ± 0.1; M -0.092 ± 0.15; N -0.765 ± 0.2; V 0.159 ± 0.1; Q -0.156 ± 0.17; F -0.619 ± 0.17; R -0.446 ± 0.1; A -0.639 ± 0.17; Y -0.548 ± 0.24; S -0.655 ± 0.11; C -0.386 ± 0.13; E -0.013 ± 0.12; G -0.64 ± 0.12; K -0.269 ± 0.2; W -0.688 ± 0.2; T -0.388 ± 0.11
A20: C -0.152 ± 0.11; D -0.286 ± 0.2
D10: M 0.001 ± 0.31; G -0.59 ± 0.1; V -0.661 ± 0.14; P -0.246 ± 0.15; Y -0.838 ± 0.37; C -0.472 ± 0.16; F -1.01 ± 0.44; L -0.724 ± 0.16; W -0.507 ± 0.22; I -0.919 ± 0.24; S -0.093 ± 0.13; A -0.217 ± 0.1; N -0.227 ± 0.098; H -0.262 ± 0.31; R -0.335 ± 0.1; Q -0.625 ± 0.23
A1: E -0.082 ± 0.17; T -0.213 ± 0.23; S 0.127 ± 0.43; R -0.1 ± 0.35; D -0.322 ± 0.37; V -0.068 ± 0.18
D17: P -0.592 ± 0.19; M -0.048 ± 0.15; H -0.298 ± 0.13; S 0.126 ± 0.091; V -0.473 ± 0.09; F -0.359 ± 0.19; T -0.119 ± 0.12; C -0.344 ± 0.17; N 0.147 ± 0.2; Y -0.359 ± 0.24; K -0.099 ± 0.16; R 0.014 ± 0.08; E -0.03 ± 0.12; I -0.419 ± 0.23; L -0.125 ± 0.099; Q -0.082 ± 0.14; G 0.101 ± 0.072
L19: K -0.908 ± 0.33; G -0.726 ± 0.099; Y -1.04 ± 0.28; N -0.7 ± 0.18; F -0.733 ± 0.24; A -0.9 ± 0.15; W -0.838 ± 0.15; R -0.764 ± 0.097; T -0.648 ± 0.17; I -0.357 ± 0.2; V -0.281 ± 0.098; S -0.848 ± 0.14; Q -0.869 ± 0.21; C -0.599 ± 0.14; H -0.858 ± 0.26; E -0.523 ± 0.16; P -0.806 ± 0.19; D -0.776 ± 0.21
T12: I -0.608 ± 0.17; V -0.165 ± 0.094; N 0.01 ± 0.16; L -0.369 ± 0.095; W -0.629 ± 0.16; Y -0.289 ± 0.21; D -0.203 ± 0.11; C -0.464 ± 0.16; G -0.424 ± 0.086; F -0.39 ± 0.19; R -0.072 ± 0.083; A -0.075 ± 0.092; M -0.168 ± 0.14; K -0.178 ± 0.18; Q -0.345 ± 0.18; H -0.108 ± 0.19
C3: P -0.901 ± 0.17; Q -0.606 ± 0.16; L -0.387 ± 0.11; D -0.033 ± 0.12; W -0.449 ± 0.13; T -0.123 ± 0.12; Y -0.184 ± 0.091; H -0.706 ± 0.18; K -0.597 ± 0.16; N -0.252 ± 0.17; A -0.463 ± 0.12; G -0.308 ± 0.079; F -0.155 ± 0.14; R -0.555 ± 0.1; S -0.452 ± 0.1; V -0.374 ± 0.094; M -0.094 ± 0.12
E18: K -0.439 ± 0.18; D -0.263 ± 0.15; F -0.466 ± 0.17; S -0.397 ± 0.11; Q 0.036 ± 0.14; H -0.208 ± 0.18; A -0.646 ± 0.14; P -0.919 ± 0.23; Y -0.254 ± 0.16; L -0.745 ± 0.14; C -0.309 ± 0.14; R -0.819 ± 0.12; I -0.853 ± 0.27; W -0.905 ± 0.16; V -0.722 ± 0.12; M -0.696 ± 0.21; T -0.908 ± 0.25; N -0.954 ± 0.37; G -0.317 ± 0.091
Q4: V -0.488 ± 0.13; C -0.57 ± 0.19; I -0.391 ± 0.28; P -0.817 ± 0.17; D -1.15 ± 0.49; K -0.236 ± 0.13; G -0.6 ± 0.12; T -0.207 ± 0.1; R -0.354 ± 0.089; S -0.277 ± 0.1; E -0.629 ± 0.17; M -0.527 ± 0.16; W -0.451 ± 0.15; L -0.538 ± 0.12; F -0.719 ± 0.26; Y -0.487 ± 0.17; A -0.826 ± 0.17; H -0.373 ± 0.21
G7: C 0.176 ± 0.12; K -0.772 ± 0.21; A 0.54 ± 0.098; F -0.739 ± 0.19; L -0.618 ± 0.12; D -0.721 ± 0.11; Q -0.893 ± 0.24; M -0.681 ± 0.22; H -0.466 ± 0.38; R -0.849 ± 0.11; Y -1.13 ± 0.35; P -0.519 ± 0.29; S 0.309 ± 0.083; W -0.775 ± 0.15; N -1.15 ± 0.32; V -0.551 ± 0.093
A13: N -0.839 ± 0.26; F -0.592 ± 0.34; T -0.336 ± 0.11; I -0.735 ± 0.26; C -0.76 ± 0.21; E -0.822 ± 0.16; P -0.059 ± 0.1; M -0.853 ± 0.18; R -0.451 ± 0.089; Y -0.574 ± 0.2; L -0.903 ± 0.13; D -0.944 ± 0.24; S -0.455 ± 0.1; V -0.832 ± 0.11; Q -0.676 ± 0.14; W -0.746 ± 0.14
D16: I -0.108 ± 0.13; R -0.293 ± 0.074; H -0.614 ± 0.2; M -0.225 ± 0.11; L -0.3 ± 0.088; A -0.232 ± 0.096; S -0.296 ± 0.089; C -0.166 ± 0.11; W -0.726 ± 0.12; P -0.259 ± 0.13; Y -0.588 ± 0.21; E 0.059 ± 0.12; Q 0.115 ± 0.13; T -0.232 ± 0.11; N -0.302 ± 0.15; G -0.121 ± 0.077

Variants of: B2
Experiment: as above
Details: Homo sapiens

Abundance fitness, by site and new letter:
Q55: M -0.233 ± 0.25; R 0.054 ± 0.12; H -0.004 ± 0.45; S -0.133 ± 0.12; E -0.341 ± 0.44; Y -0.267 ± 0.19; N -0.551 ± 0.29; L -0.138 ± 0.15; V -0.44 ± 0.17; P 0.045 ± 0.18; G -0.229 ± 0.16; I -0.099 ± 0.11; T -0.07 ± 0.27; W -0.329 ± 0.3; D -0.034 ± 0.16
G54: V 0.008 ± 0.1; T -0.069 ± 0.26; Y -0.042 ± 0.26; R -0.019 ± 0.1; Q 0.121 ± 0.24
